For three substances, percent of cells with PLA-positive puncta and percent of cells with more than one PLA spot results are on record in PMC4989220.

In assay [1] the target is Rab6a GTPase (rat hepatocytes) (rat (endogenous in primary hepatocytes)) (UniProt Q9WVB1). As to the kind of experiment: proximity ligation; Duolink in situ PLA in VA-13 cells treated with 35 mM EtOH for 72 h and hepatocytes from EtOH-fed rats; mouse anti-Rab6a + rabbit anti-NMIIA-P-S1943; cells with more than one red spot counted.
Assay [2] shares this target. As to the kind of experiment: proximity ligation; Duolink in situ PLA in control VA-13 cells and hepatocytes from control rats; mouse anti-giantin + rabbit anti-Rab6a, or mouse anti-Rab6a + rabbit anti-NMIIA-P-S1943; cells with more than one red spot counted.
Assay [3] deals with Rab6a GTPase (human (endogenous in VA-13, HepG2-derived)) (UniProt P20340). The description is as above.
Sequence of Rab6a GTPase (human (endogenous in VA-13, HepG2-derived)) (P20340 whole entry): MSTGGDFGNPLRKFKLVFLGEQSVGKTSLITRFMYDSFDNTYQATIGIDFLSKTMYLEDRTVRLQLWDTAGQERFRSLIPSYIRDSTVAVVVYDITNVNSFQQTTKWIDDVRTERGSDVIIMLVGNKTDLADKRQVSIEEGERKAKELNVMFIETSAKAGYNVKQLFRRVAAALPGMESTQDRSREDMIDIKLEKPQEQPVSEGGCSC

Sequence of Rab6a GTPase (rat hepatocytes) (rat (endogenous in primary hepatocytes)) (Q9WVB1 whole entry): as the sequence (P20340 whole entry) above, with T3A, S202N counted along it
Sequence of non-muscle Myosin IIA heavy chain phosphorylated at S1943 (rat hepatocytes) (Q62812 2-1961): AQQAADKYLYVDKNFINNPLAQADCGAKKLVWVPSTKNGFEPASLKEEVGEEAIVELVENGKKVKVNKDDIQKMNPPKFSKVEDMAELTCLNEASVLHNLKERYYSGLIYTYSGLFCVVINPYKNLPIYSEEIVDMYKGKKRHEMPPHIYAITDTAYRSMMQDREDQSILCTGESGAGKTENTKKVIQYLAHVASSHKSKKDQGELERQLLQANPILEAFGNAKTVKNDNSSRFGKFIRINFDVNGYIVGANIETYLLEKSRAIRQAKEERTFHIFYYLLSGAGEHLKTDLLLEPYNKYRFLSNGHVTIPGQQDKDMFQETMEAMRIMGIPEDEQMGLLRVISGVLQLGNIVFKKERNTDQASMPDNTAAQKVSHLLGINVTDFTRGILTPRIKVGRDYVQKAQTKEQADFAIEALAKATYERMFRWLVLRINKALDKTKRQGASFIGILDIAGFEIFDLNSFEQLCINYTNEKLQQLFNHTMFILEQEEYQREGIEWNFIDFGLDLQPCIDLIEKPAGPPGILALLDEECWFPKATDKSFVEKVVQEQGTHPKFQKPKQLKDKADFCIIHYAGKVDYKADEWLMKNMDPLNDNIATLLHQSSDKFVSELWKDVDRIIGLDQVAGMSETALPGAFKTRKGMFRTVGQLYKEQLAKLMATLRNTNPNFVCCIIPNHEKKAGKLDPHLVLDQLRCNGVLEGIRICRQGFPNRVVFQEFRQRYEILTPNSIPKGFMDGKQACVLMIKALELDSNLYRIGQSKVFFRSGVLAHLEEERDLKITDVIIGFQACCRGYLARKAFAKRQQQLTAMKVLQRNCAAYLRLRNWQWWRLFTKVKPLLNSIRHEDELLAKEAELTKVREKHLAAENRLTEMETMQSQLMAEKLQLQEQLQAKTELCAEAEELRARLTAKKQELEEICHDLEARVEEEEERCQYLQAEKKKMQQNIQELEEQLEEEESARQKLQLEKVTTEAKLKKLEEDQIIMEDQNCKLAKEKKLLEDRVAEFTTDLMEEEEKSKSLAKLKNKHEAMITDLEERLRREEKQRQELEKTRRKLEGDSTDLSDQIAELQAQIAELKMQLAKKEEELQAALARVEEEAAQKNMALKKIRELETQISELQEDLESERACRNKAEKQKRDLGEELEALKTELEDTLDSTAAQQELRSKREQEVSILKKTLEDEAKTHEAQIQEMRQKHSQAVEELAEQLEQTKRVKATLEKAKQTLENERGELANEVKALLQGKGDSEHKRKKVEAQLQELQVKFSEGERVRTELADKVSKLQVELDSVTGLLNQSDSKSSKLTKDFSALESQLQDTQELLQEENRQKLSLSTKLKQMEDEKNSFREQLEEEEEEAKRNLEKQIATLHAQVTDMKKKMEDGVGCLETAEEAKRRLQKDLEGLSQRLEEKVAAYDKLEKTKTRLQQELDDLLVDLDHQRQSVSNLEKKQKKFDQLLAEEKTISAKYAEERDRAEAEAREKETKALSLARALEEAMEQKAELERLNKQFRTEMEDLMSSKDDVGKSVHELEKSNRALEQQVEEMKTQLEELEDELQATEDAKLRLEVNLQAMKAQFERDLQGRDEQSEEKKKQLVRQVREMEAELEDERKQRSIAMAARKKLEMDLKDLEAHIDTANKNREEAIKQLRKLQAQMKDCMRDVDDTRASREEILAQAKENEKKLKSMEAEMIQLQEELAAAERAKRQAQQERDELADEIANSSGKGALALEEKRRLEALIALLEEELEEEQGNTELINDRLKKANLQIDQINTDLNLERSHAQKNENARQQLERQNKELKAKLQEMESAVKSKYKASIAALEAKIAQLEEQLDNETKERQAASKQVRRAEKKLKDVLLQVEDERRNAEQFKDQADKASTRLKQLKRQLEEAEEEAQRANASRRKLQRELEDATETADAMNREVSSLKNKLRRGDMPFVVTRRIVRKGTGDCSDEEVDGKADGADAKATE

As to “non-muscle Myosin IIA heavy chain phosphorylated at S1943 (rat hepatocytes) (from UniProt Q62812 1-1961) (natural protein)”, the percent of cells with PLA-positive puncta in assay [1] worked out at 86%.

For the substance “giantin (rat hepatocytes) (natural protein)”, in assay [2], the percent of cells with more than one PLA spot was 83%.

As for giantin, Q14789 1-3259, the percent of cells with more than one PLA spot in assay [3] is 78%.
